Laboratory results from the domain aggregation screens of Martell et al. (2025).

Experiment: soluble fraction after stress (log2 fold change); higher = more stays soluble; pooled small domains, quantitative proteomics
Details: stress: 50 degC
In short: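 Quantitative proteomics served as the high-throughput read-out for pooled custom libraries of small protein domains. Each was stressed at 50°C. Aggregation propensity is expressed as the base-two log fold change in soluble protein after stress. A higher value means a larger share of the protein remains in solution.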
In the case of “HMSTKRGEILEFLKDFSARKGYAPSVREIMQAVGLKSTASVHYHLSELHKAGLITVDGTKNRAISLA”, the “soluble fraction (log2)” value is reported as -0.149. For “HMSTMKSKWFVSSNPIAGVMKYQAQRKKDVNAVDSSENREASGQWYTDKEEAQAIVDKLNAEEQIKEAGK”, the “soluble fraction (log2)” value was 0.159. For “HMSTMLPFVMRELVELVMKKKALPLGDALYYIYSSKLYKSLLDKSTKLWYSSTLSLYETLEKEKTEEKRRY”, the “soluble fraction (log2)” value was -1.79. With “HMSTMTDAQRHLFANKLSQLPEMGKYSHGTESYQQFAVRIAEMLQTPKKFKELYPYLQKVGFKA” the “soluble fraction (log2)” value was 0.00319. For “HMSTNYVQVLRAALNGVSGRKLAQQYRVSRDTVAILLRQAKIQGWQRAEDLENITEEDLVALLSG”, the “soluble fraction (log2)” value was -0.373. For “HMSTPLPTGLPRGTIIEYTVQTDETLAIIAAKFNSTVDDIMTRNKITDPNTIYAGQILKVAINLVTP”, the “soluble fraction (log2)” value was 0.15. For “HMSTPVPIEGQPTENLNLRDQPSTSGKILTTIPKGKTVTILSEKNANGWYKVSYNGKTGYVSGSYFKVTK”, the “soluble fraction (log2)” value was 0.317. In the case of “HMSTSERLKQVMEVKGFNLKTFSEQADIPYRTLQNYILTNREPSAESLAKLHSQLGINLNWLMSGKGEMF”, the “soluble fraction (log2)” value is reported as -0.283. In the case of “HMSTSIADNSSITYKVRKGDSLASIAKRHGVNINDVMRWNSVITKASQIQPGDMLTLYVRDS”, the “soluble fraction (log2)” value is reported as 0.026. In the case of “HMSTTALLEKMVRYIRTLPVISQVVLSLHYYRGMELREIASELDITESRASQLHTTAVLGIRDLLSSY”, the “soluble fraction (log2)” value is reported as -3.33. In the case of “HMSTTGIVKWFNEEKGFGFITQDQGGADVFVHYRAIASEGFKTLAEGQKVSFEVEQGQKGLQAANVQA”, the “soluble fraction (log2)” value is reported as 0.0843. In the case of “HMSTTHLTASVIKDKVNVRSEADSQNGAIIDKARTGERLLVTDYGNKWTGIVLPDGKRGYIMTEYLQF”, the “soluble fraction (log2)” value is reported as 0.0443. For “HMSTTSYTQFMEDAKAGKIARVDIKGREITVTPTEGSRYVITSPGDLWMVDDLRKDGVQVYGPP”, the “soluble fraction (log2)” value was 0.101. In the case of “HMSTTYLNEGDRITLTDSVNIRTSMSETADRVGLAYQGDVVTVIMSYAEGWTKVSWNGQTGYAKTEYL”, the “soluble fraction (log2)” value is reported as -0.617. For “HMSTVIENVFKNFEVYEIKKGDTFYNIEKRFGVNRQELLVLNPELKEGLKLGMVLKIKEIIP”, the “soluble fraction (log2)” value was -1.07. For “HMSTYTETETAYLKAYSAAGVDGKISDSERGILNMTAEALGITVERTTELEAMFNLTVEEEA”, the “soluble fraction (log2)” value was -0.118. In the case of “HMSVDIWTGAQTGNIEAVKQHLADGVDVNSKSDIGRTALDVAIAFKQPLITDLLRKHGGKTRDELKAAE”, the “soluble fraction (log2)” value is reported as 0.545. For “HMSVEVADITRAYYEGVGFEWWIRSVRLDPNELIVDNDDEGKLYRVPFEINGEEVTFGDPVEVKIRYE”, the “soluble fraction (log2)” value was -0.541. With “HMSVFGDNVARLRAEHGMSQRALAERLEITNGTVAAWESRDTLPDYDRIRQIAEIFDVPIPQLFAKYIP” the “soluble fraction (log2)” value was -1.66. With “HMSVISVETAKSKALAHAGLTASKVTFIENKLEWDDGRQVYDIEFYTSDYKEYDYTIDAVSGQVLEFDY” the “soluble fraction (log2)” value was -1.13. For “HMSVKLMEVKGASTVVSRQVREAVSIVFPTSSMRLDLVALKARIEGVDAVKRADVYLRNGILEIQIDER”, the “soluble fraction (log2)” value was -1.99. For “HMSVKLYPNPTRSVTTFATDVDKWYLYDNQGKLVSEGNTKTIDVTAFPVGIYFVKTIKGNNSTFVKLIV”, the “soluble fraction (log2)” value was -1.4. For “HMSVLNLQTDIPKKYTDVLGTSVKGRLNTLVHNVIINSVDRPVIQMSEEVHEAMQGLRIFMFENVYRNPV”, the “soluble fraction (log2)” value was 0.0658. For “HMSVLSEQIKEQLMEDIFHKKYKAGDRIVESALARELGVSQASVREALRSLIAMGFLENEPFKGITVR”, the “soluble fraction (log2)” value was 0.0703. In the case of “HMSVNAPMPGKIVNVLVSEGQKVNSGDVLLILEAMKMQNEIAATQAGTVKAINVAAGQSVKVGDALVN”, the “soluble fraction (log2)” value is reported as 0.108. For “HMSVPQENKDLLGRSIEIFYAGKTVEAKVTDTGALAPLGRALDLSPATWRAFGASSISDWGVRGVFYRFVA”, the “soluble fraction (log2)” value was 0.0464. With “HMSVSTGTITGSVVNLREEPNTSSKVLDKLPKDTVVYVLSASGEWYNVSYGDKTGWVYGEYLA” the “soluble fraction (log2)” value was -0.163. With “HMSVTSEIGAKIKYFRKSKHFSLQEMADLLYKSKSTLSKYENGQISIDIETLYAIAKVLGVHVEQLLYSEP” the “soluble fraction (log2)” value was -4.49.
